According to patent US20030054337A1:

Legend:
[1] = biological target: V12.Pf3.9 recombinant HBc chimer particle (hepatitis B virus, subtype ayw; Plasmodium falciparum); test: particle ELISA, end point titer dilution of MoAb 2A10
[2] = biological target: V12.Pf3.6 recombinant HBc chimer particle (hepatitis B virus, subtype ayw; Plasmodium falciparum); test: as above
[3] = biological target: V12.Pf3 recombinant HBc chimer particle (hepatitis B virus, subtype ayw; Plasmodium falciparum); test: as above
[4] = biological target: V12.Pf3.2 recombinant HBc chimer particle (hepatitis B virus, subtype ayw; Plasmodium falciparum); test: as above
[5] = biological target: V12.Pf3.11 recombinant HBc chimer particle (hepatitis B virus, subtype ayw; Plasmodium falciparum); test: as above
[6] = biological target: V12.Pf3.5 recombinant HBc chimer particle (hepatitis B virus, subtype ayw; Plasmodium falciparum); test: as above
[7] = biological target: V12.Pf3.12 recombinant HBc chimer particle (hepatitis B virus, subtype ayw; Plasmodium falciparum); test: as above
[8] = biological target: V12.Pf3.1 recombinant HBc chimer particle (hepatitis B virus, subtype ayw; Plasmodium falciparum); test: as above
[9] = biological target: V12.Pf3.10 recombinant HBc chimer particle (hepatitis B virus, subtype ayw; Plasmodium falciparum); test: as above
[10] = biological target: V12.Pf3.3 recombinant HBc chimer particle (hepatitis B virus, subtype ayw; Plasmodium falciparum); test: as above
[11] = biological target: V12.Pf3.4 recombinant HBc chimer particle (hepatitis B virus, subtype ayw; Plasmodium falciparum); test: as above
[12] = biological target: V12.Pf3.8 recombinant HBc chimer particle (hepatitis B virus, subtype ayw; Plasmodium falciparum); test: as above
[13] = biological target: V12.Pf1 recombinant HBc chimer particle (hepatitis B virus, subtype ayw; Plasmodium falciparum); test: as above
[14] = biological target: V12.Pf3.1 recombinant HBc chimer particle (hepatitis B virus, subtype ayw; Plasmodium falciparum); test: particle ELISA, end point titer dilution of MoAb 2A10; reference V12.Pf3

Substance: MoAb 2A10 (antibody)
- Antigenicity (end point titer, normalized so that the lowest titer is 1) [1]: 5 fold
- Antigenicity (end point titer, normalized so that the lowest titer is 1) [2]: 5 fold
- Antigenicity (end point titer, normalized so that the lowest titer is 1) [3]: 165 fold
- Antigenicity (end point titer, normalized so that the lowest titer is 1) [4]: 33 fold
- Antigenicity (end point titer, normalized so that the lowest titer is 1) [5]: 5 fold
- Antigenicity (end point titer, normalized so that the lowest titer is 1) [6]: 5 fold
- Antigenicity (end point titer, normalized so that the lowest titer is 1) [7]: 5 fold
- Antigenicity (end point titer, normalized so that the lowest titer is 1) [8]: 33 fold
- Antigenicity (end point titer, normalized so that the lowest titer is 1) [9]: 1 fold
- Antigenicity (end point titer, normalized so that the lowest titer is 1) [10]: 5 fold
- Antigenicity (end point titer, normalized so that the lowest titer is 1) [11]: 5 fold
- Antigenicity (end point titer, normalized so that the lowest titer is 1) [12]: 5 fold
- Antigenicity (end point titer, normalized so that the lowest titer is 1) [13]: 33 fold
- fold less antigenic than V12.Pf3 [14]: 5 fold
